From patent US20260258115A1 (MAPP BIOPHARMACEUTICAL, published 2026)

B1: ADI-14371 (antibody, V domains shown)
VH: EVQLVESGGGLVQPGGSLRLSCAASGFTFSNYAMTWVRQAPGKGLEWLSSISGSGGSTYYADSVKGRFTISRDNSRNTLYVQMNSLRVEDTAFYYCAKAFYEYGAGSPGDYWGQGTLVTVSS
VL: DIQLTQSPSSLSASVGDRVTITCRASQSIGTNLNWYQQKPGKAPKFLIYAASSLQRGVPSRFSGSGSGSEFTLTISSLQPEDFATYYCQQSYSTLPITFGQGTKLEIK
notes: full-length IgG; also called Ab 39
B2: ADI-14352 (antibody, V domains shown)
VH: EVQLLETGPGLVKPSQTLSLICAVSGGSISSGGYSWSWIRQPPGKGLEWVGYISYSGSTYYNPSLKSRVTISVDTSKNQFSLKLNSVTAADTAVYFCARVDGIYSSGMRFDYWGQGTLVTVSS
VL: DIQLTQSPGTLSLSPGERATLSCRASQSVSSYYLAWYQQKPGQAPRLLIYGTSSRATGIPDRFSGSGSGTDFTLTISRLEPEDFAVYYCQQYGRSPLFGQGTRLEIK
notes: full-length IgG; also called Ab 20
B3: ADI-19505 (antibody, V domains shown)
VH: QVQLVQSGAEVKKPGESLKISCKGSGYSFTNYWIGWVRQMPGKGLEWMGITYPGDSDTRYSPSFQGQVTISADKSISTAHLQWDSLKASDTAMYYCARLRCTGSICYDAFDIWGQGTTVTVSS
VL: SYVLTQPLSVSVALGQTARITCGGNNIGSKNVHWYQQKPGQAPVLVIYRDNNRPSGIPERFSGSNSGNTATLTISRAQAGDEADYYCQVWDSSTGGDVFGAGTKVTVL
notes: full-length IgG
B4: ADI-14375 (antibody, V domains shown)
VH: EVQLVESGGGLVQPGGSLRLSCAVSGFTFSNYAVSWVRQAPGKGLEWVSGISGSGGTTYYVDSVKGRFTVSRDNSKNTLFLQLNSLKAEDTAVYYCAKDWGYSGGRPYFDYWGQGTLVTVSS
VL: QSVLTQPPSVSGAPGQRVTISCTASSSNIGPIYDVHWYQQLPGTGPKLLIYGNNNRPSGVPDRFSGSKSGTSASLAITGLQAEDEADYYCQSYDTSLSVVFGGGTKLTVL
notes: full-length IgG; also called Ab 43
B5: ADI-22777 (antibody, V domains shown)
VH: QVQLVQSGAEVKRPGASVKVSCKASEYTFNFHDINWVRQAPGQGLEWMGWMNPKSGNTGYAQKFQGRVTMTRDTSKNTAYLELSSLRSEDTAVYYCARGYGTSWSSDSWWGQGTLVTVSS
VL: SYELTQLPSVSVSPGQTARITCSGDALSKQFVYWYQQKPGLAPMLVIYKDTNRPSWIPERFSGSGSGTTATLTISEVQAEDEADYYCQSVDNSGTYGWVFGGGTKVTVL
notes: full-length IgG
B6: ADI-14360 (antibody, V domains shown)
VH: QVQLVQSGAEVKKPGASVKVSCKASGYTFTTYSMHWVRQAPGQRLEWMGWINAGNGNTKYSQKFQGRVTITRDTSASTAYMELSSLRSEDTAVYYCARDGVGGAYYYGEMDVWGQGTTVTVSS
VL: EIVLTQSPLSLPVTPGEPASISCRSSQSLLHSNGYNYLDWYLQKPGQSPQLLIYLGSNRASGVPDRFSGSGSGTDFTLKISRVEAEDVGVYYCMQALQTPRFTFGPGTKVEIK
notes: full-length IgG; also called Ab 28
B7: ADI-14361 (antibody, V domains shown)
VH: EVQLLESGGGFVQPGGSLRLSCAASGFTFSSYAVNWVRQAPGKGLEWVSLISGSGRTDYTDSVKGRFTISRDNAKNTLFLQMNSLRVEDTAVYYCAKSWGSSGYGYLDYWGQGTLVTVSS
VL: QSGLTQPPSVSGAPGQRVTISCTGSSSNIGPGTDVHWYQHFPGTAPKLLIFGNSNRPSGVPDRFSGSKSGTSASLAITGLQAEDEAYYYCQSYDRTLSASVFGGGTKLTVL
notes: full-length IgG; also called Ab 29
B8: ADI-14351 (antibody, V domains shown)
VH: EVQLLESGGGLVQPGGSLRLSCSASGFTFSTYWMHWVRQAPGKGLVWVSRINGDGNDRNYADSVKGRFTISRDNAKNTVYLQMNSLRAEDTAVYYCARGGATGDFYFGMDVWGQGTTVTVSS
VL: SYELTQPPSVSVAPGKTAKITCGGNNIGTKSVHWYQQKPGQAPVLVIYYDTDRPSGIPERFSGSNSGNTATLTISRVEAGDEADYYCQVWDSSNSDHVGVFGGGTQLTVL
notes: full-length IgG; also called Ab 19
B9: ADI-24852 (antibody, V domains shown)
VH: QVQLVESGAEVKKPGASVKVSCKASGYTFTSYAIHWVRQAPGQRLEWMGWINAGNGNTKYSQKFQGRVTITRDTSASTAYMELSSLRSEDTAVYYCASEESGYFDYWGQGTLVTVSS
VL: not shown
notes: full-length IgG; also called Ab 413
B10: ADI-22778 (antibody, V domains shown)
VH: EVQLVESGPGLVKPSETLSLTCTVSGGSINSYSWTWIRQPPGKGLEWLGSFDYSGSNTYNPSLKSRVTIAVDTSKNQFSLKLTSATAADTAVYYCARAPVYDSSGYYLYYFDNWGQGTLVTVSS
VL: DIQMTQSPSSLSASVGDRVTITCRASQSIASYLNWYQQKPGKAPKLLIFAASNLHSGVPSRFSGSGSGTTFTLTISSLQPEDFATYYCQQSYSIRFFTFGPGTKLEIK
notes: full-length IgG
B11: ADI-22764 (antibody, V domains shown)
VH: QVQLVESGPGLVRPSGTLSLTCAVSGGSISGKNWWSWVRQPPGKGLEWIGEIDHSGSTNYNPSLKSRVTISVDKSKNQFSLKLSSVTAADTAVYYCARTGLYDSSGYYLYYFNYWGQGTLVTVSS
VL: EIVMTQSPSSLSASVGDRVTISCRASQTIASYVNWYQQRPGKAPNLLIFAASNLQTGVPSRFRGSGSGTVFTLTISSLQPEDFATYYCQQSYSTPRTFGQGTKVDIK
notes: full-length IgG
B12: ADI-19483 (antibody, V domains shown)
VH: QVQLVQSGAEVKKPGESLKISCKGSGYSFTTYWIGWVRQMPGKGLEWMGIIFPGDSDTRYSPSFQGQVTISADKSISTAYLQWSSLKASDTAMYFCARSAFPFGFDIWGQGTMVTVSS
VL: SYVLTQPHSVSESPGKTVTISCTRSSGSIASNYVQWYQQRPGSSPTTVIYEDHQRPSGVPDRFSGSIDSSSNSASLTISGLQTEDEADYYCQSYGSGNPWVFGGGTKVTVL
notes: full-length IgG
B13: ADI-22760 (antibody, V domains shown)
VH: EVQLVESGGGLVQPGRSLRLSCVASGFTFDDYAMHWVRQAPGKGLEWVSGINWNSGGIGYADSVKGRFTISRDNTKNSLYLQMNSLRAEDTALYYCAKDGSALMGYGVEVWGQGTTVTVSS
VL: SYELTQPPSASGTPGQRVTISCSGSNSNIGNNYVYWYQQLPGTAPKLLIYRNNQWPSGVPDRFSASKSGTSASLAISGLRSEDEADYYCASWDDSLSALVFGGGTKLTVL
notes: full-length IgG; also called Ab 340
B14: ADI-14358 (antibody, V domains shown)
VH: QVQLVQSGGGLVKPGGSLRLSCVASGFTFSDYYMTWIRQAPGKGLEWVSYISGSSAYTIYADSVKGRFTISRDNAKNSLYLQMNGLRAEDTAVYYCARVSWVRSLDSWGQGTLVTVSS
VL: QSALTQPASVSGSPGQSITISCTGSTSDVGLYNYVSWYQLHPGKAPKLIIYDVRHRPSGVSDRFSASKSGNTASLTISGLQAEDEADYYCCSYTSSSTYVFGSGTQLTVL
notes: full-length IgG; also called Ab 26
B15: ADI-22780 (antibody, V domains shown)
VH: EVQLVESGPTLVKPTQTLTLTCTFSGFSLSTSGVGVGWIRQPPGKALEWLALIYWDDDKRYSPSLKSRLTITKDTSKNQVVLTMTNMDPVDTATYYCAHRGRQYSYGYYYFDYWGQGTLVTVSS
VL: QSVLIQPASVSGSPGQSITISCTGTSSDVGGYNFVSWYQQHPGKAPKLMIYDVSNRPSGVSNRFSGSKSGNTASLTISGLQAEDEADYYCSSYTSSTLDVFGTGTKVTVL
notes: full-length IgG
B16: ADI-14354 (antibody, V domains shown)
VH: QVQLVQSGAEVKKPGSSAKVSCKASGGTFSSYTISWVRQAPGQGLEWMGRIIPFLGIANYAQKFQGRVTFTADKSTSTVYMDLSRLRSEDTALYYCAREPMYYGGDSYAFDVWGQGTTVTVSS
VL: QSVLTQPASMSGSPGHSITISCTGTSSDVGAYNYVSWYQQHPGKAPKLMIYDVSNRPSGVSSRFSGSKSGNTASLTISGLQPEDEADYYCSSFTTSSTRVFGTGTKLTVL
notes: full-length IgG; also called Ab 22
B17: ADI-14339 (antibody, V domains shown)
VH: QVQLVESGGGVLQPGRSLRLPCEASGFTFNKYAMHWVRQAPGKGLEWVAAVSYDGGNKFYAESVKGRFTISRDNSKNTLYLQMNSLKPEDTAVYYCARDRWELLHGLDYWGLGTLVTVSS
VL: SYELTQPPSVSVSPGQTARITCSGEALAKQYAYWYQQKPGQAPVLVIYKDNERPSGISERFSGSSSGTTVTLTISGVQAEDEADYYCQSADSSGTYVFGTGTKVTVL
notes: full-length IgG; also called Ab 7
B18: ADI-22763 (antibody, V domains shown)
VH: EVQLVESGGGLIQPGGSLRLSCAASGFTFSTYEMNWVRQAPGKGLEWVSSISTSGSTKDYAGSVKGRFTVSRDNAKNSLYLQMNSLRAEDTAIYYCARVYYYDSSGYYLALFDYWGQGTLVTVSS
VL: EIVLTQSPSSLSASVGDRVTITCRASQSIASYLNWYQQKPGKAPKLLIYAASSLRSGVPSRFSGSGSGTDFTLTISSLQPEDFATYYCQQSYSTPSLTFGGGTKLEIK
notes: full-length IgG
B19: ADI-14383 (antibody, V domains shown)
VH: QITLKESGPTLVKPTQTLTLTCTFSGFSLSTSGVGVGWIRQPPGKALEWLALIYWDEDKRYSPSLKTRLTITKDTSRNQVKLTMTNMDPVDTATYYCAHQYYDILTGYPSPGAFDIWGQGTTVTVSS
VL: QPVLTQPASVSGSPGQSITISCTGTSSDVVSYNLVSWFQQHPGKAPKLMIYEVTRRPSGVSNRFSGSKSGNTASLTISGLQAEDEADYYCCAYTGTPVVFGGGTKLTVL
notes: full-length IgG; also called Ab 51
B20: ADI-19484 (antibody, V domains shown)
VH: QVQLQESGSGLVKPSQTLSLTCVVSGGSISSGGNSWSWIRQPPGKGLEWIGYIYDSGNTYYNPSLKSRVTISVDRSKNQFSLKVSSVTAADTAVYYCARGAETGTTGWYDPWGQGTLVTVSS
VL: DIRLTQSPSSLSASVGDRVTITCRASQTISSYLNWYQQKPGKAPRLLIYAASSLQSGVPSRFSGSGSGTDFTLTISSLQPEDFATYYCQQSYGTPRTFGQGTKVEIK
notes: full-length IgG

What follows are binders tested against T1, RSV prefusion F (preF), subtype B (respiratory syncytial virus subtype B) (assay: BLI, IgG).
T1 construct: also called Prefusion subtype B

| Binder | Kd |
| --- | --- |
| B1 | 8.43 nM |
| B2 | 5.54 nM |
| B3 | 44.4 nM |
| B4 | 3.21 nM |
| B5 | 0.762 nM |
| B6 | 26.8 nM |
| B7 | 52.8 nM |
| B8 | 0.789 nM |
| B9 | 19 nM |
| B10 | 4.02 nM |
| B11 | 1.42 nM |
| B12 | 1.77 nM |
| B13 | 3.07 nM |
| B14 | 60.3 nM |
| B15 | 23.8 nM |
| B16 | 25.3 nM |
| B17 | 1.77 nM |
| B18 | 10.8 nM |
| B19 | 1.75 nM |
| B20 | 8.92 nM |

The binders below were run against T2, RSV postfusion F (postF), subtype A (respiratory syncytial virus subtype A, UniProt P03420 26-513) (assay: BLI, IgG).
T2 construct: also called Postfusion subtype A; F deltaFP

| Binder | Kd |
| --- | --- |
| B1 | 1.23 nM |
| B2 | 0.448 nM |
| B3 | 4.94 nM |
| B4 | 0.477 nM |
| B5 | 0.268 nM |
| B6 | 5.88 nM |
| B7 | 0.437 nM |
| B8 | 0.361 nM |
| B9 | 9.57 nM |
| B10 | 0.209 nM |
| B11 | 0.334 nM |
| B12 | 0.321 nM |
| B13 | 1.19 nM |
| B14 | 0.656 nM |
| B15 | 0.739 nM |
| B16 | 1.04 nM |
| B17 | 0.439 nM |
| B18 | 0.319 nM |
| B19 | 0.434 nM |
| B20 | 0.369 nM |

The binders below were run against T3, RSV postfusion F (postF), subtype B (respiratory syncytial virus subtype B) (assay: BLI, IgG).
T3 construct: also called Postfusion subtype B

| Binder | Kd |
| --- | --- |
| B1 | 1.07 nM |
| B2 | 0.383 nM |
| B3 | 5.01 nM |
| B4 | 3.31 nM |
| B5 | 0.224 nM |
| B6 | 9.03 nM |
| B7 | 0.293 nM |
| B8 | 0.215 nM |
| B9 | 9.17 nM |
| B10 | 2.77 nM |
| B11 | 1.44 nM |
| B12 | 0.153 nM |
| B13 | 1.25 nM |
| B14 | 27.5 nM |
| B15 | 0.6 nM |
| B16 | 6.63 nM |
| B17 | 0.376 nM |
| B18 | 5.33 nM |
| B19 | 0.251 nM |
| B20 | 0.355 nM |
